This is an account of results in article PMC3817407.

The target in experiment [1] is T1, ECF02_2817.
T1 chain: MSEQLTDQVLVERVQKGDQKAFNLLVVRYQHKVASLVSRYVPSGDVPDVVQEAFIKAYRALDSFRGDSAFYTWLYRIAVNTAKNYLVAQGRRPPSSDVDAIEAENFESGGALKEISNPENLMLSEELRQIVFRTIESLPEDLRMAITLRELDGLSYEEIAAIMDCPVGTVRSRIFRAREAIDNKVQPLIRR

The target in experiment [2] is T2, ECF14_3200.
T2 chain: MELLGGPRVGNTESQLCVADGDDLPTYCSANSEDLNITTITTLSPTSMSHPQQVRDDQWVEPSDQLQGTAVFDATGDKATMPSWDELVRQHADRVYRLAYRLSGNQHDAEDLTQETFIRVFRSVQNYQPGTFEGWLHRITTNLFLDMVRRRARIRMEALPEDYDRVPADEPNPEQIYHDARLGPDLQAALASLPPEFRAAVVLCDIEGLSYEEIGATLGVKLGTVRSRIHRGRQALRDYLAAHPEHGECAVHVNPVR

The target in experiment [3] is T3, ECF15_436.
T3 chain: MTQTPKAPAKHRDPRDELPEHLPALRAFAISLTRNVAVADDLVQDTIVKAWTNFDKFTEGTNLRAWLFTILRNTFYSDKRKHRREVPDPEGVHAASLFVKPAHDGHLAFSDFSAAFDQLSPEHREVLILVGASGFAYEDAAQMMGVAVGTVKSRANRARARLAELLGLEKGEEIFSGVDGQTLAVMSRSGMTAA

The target of experiment [4] is T4, ECF30_35.
T4 chain: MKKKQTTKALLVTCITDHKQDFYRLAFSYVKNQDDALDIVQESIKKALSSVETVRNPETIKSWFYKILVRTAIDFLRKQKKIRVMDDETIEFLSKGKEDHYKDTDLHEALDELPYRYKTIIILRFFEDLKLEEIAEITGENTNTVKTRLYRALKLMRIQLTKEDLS

Experiment [5] addresses T5, ECF33_423.
T5 chain: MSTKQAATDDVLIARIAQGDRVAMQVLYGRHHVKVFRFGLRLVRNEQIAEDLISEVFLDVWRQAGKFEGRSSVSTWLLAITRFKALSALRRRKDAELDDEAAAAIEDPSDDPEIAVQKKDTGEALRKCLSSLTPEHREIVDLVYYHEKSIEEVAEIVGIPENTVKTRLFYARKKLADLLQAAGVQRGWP

B1: AS25_1643_cl43 (protein)
chain: MTTDSNFNDPCRRQFSRDLPQKMARHTNEATGAMDMVKRDRFELLSAYLGGEVTAAERRQVEDWPANDVAVQRLYSRLLKLRQGIRTMPIPTAQQSPETTAEQVFAKVNRRSRLAWKLGGAAVAACVIGAVTNWLPGRQTGIPQLAQQPQEQPTQAVTTPDALPMIALNNPVIEIPKAAVASPTKFIQPQPQLGEIPPDIN
With B1, the fold repression in experiment [1] came out at 4.05; in experiment [2] it was 5.41; in experiment [3] it was 1.2; in experiment [4] it was 0.929; in experiment [5] it was 1.23.

B2: AS15_524 (protein)
chain: MNFGVEDMIEHVPMEDKRKGAAALDEARLRQQAIGVKLRQMFDEVVNEPVPDEFLAILRKAERPAGGE
For the molecule B2, the fold repression in experiment [1] was 2.65; in experiment [2] it was 12.9; in experiment [3], 16.7; in experiment [4] it was 5.98; in experiment [5] it was 6.68.

B3: AS01_3473 (protein)
chain: MSNYDNAELLALWLEGKLTPKQRDEFEQRCIQDSQFAEQVDAAAMVKIGADDYSSSEVPQWNKAATFEPQQANNSGSWLSGVSLVTSALAIVLVLTGTQVTTSEGELRIRFGSGQSEQALVKLVDSKLDAFKQNQQDAFTLYAQTLQQQQSESASQLTNYLLSSSRKERREDFAELIKFVNQQRSDDQLFYARQLNQLQQDVYHDATGVALESIQQ
Regarding B3, the fold repression was 2.1 in experiment [1]; 2.06 in experiment [2]; 1.94 in experiment [3]; 1.56 in experiment [4]; 1.1 in experiment [5].

B4: AS20_992 (protein)
chain: MTPERFVHLADAYGADLQRWPSAERAAAQALLDCGDAQAVAALRQAHWLDSQLDRYQVPAPSPALAQRIIAAAQQPGAPFWSRYAGWLASLGWVGVGLTGVAAGMLAVALSLPLSTSAEALPSVFDQSDAEFVLSINAEEAEQ
On to B4, for which the fold repression in experiment [1] is 1.74; in experiment [2] it was 2.04; in experiment [3], 1.32; in experiment [4], 1.61; in experiment [5] it was 1.32.

B5: AS03_1198 (protein)
chain: MDKDFDFDNIGKRTPYRTPDNFFEETQRKILERTVDEQRKKRRLKRIIPTVIAVAAVLAGILFTPSLRYMNTDTPSASNILAVDKNNVTTDPVDKWIKELSDEELEELVSFSENDIFLN
Regarding B5, the fold repression in experiment [1] worked out at 1.85; in experiment [2], 0.974; in experiment [3] it was 1.11; in experiment [4], 1.17; in experiment [5] it was 0.857.

B6: AS14_1324 (protein)
chain: MSGSRPEPEGHLAEQHLGDRLSALVDGELGHDARERVLAHVATCPKCKAEVDAQRRLKNVFAEAAPPAPSESFLARLQGLPGGGDSDGGGSPFSGLPGGFGASAASGVFGPRRDERFEFDYVPAGSHTPVLPSATSGRGFRIHEVGRHESDRSASRGLRFAFAAAGAVSLAAIALGGVTLGTPDTTTEARGSGSGSNVTPLRTPGSAAATGSESQRRRTAGPLLGQGQRALGDLPVASTTASAPLLPGMPAPAGGDARQQAVRALTTPVTAGAAAMSPLIRPLEAVPPLSLSSWSAAPEVRPPGLLAAPDPAPSPYPAASPAASSSPLR
In the case of B6, the fold repression in experiment [1] amounted to 2.97; in experiment [2], 35.5; in experiment [3], 6.5; in experiment [4], 3.36; in experiment [5] it was 4.28.

B7: AS22_1147 (protein)
chain: MELDDIAVAWRSLEQRLDQHAALAGQVLGDLRSHAARAHLRPLWLSQSAQLLCAIALSGLVAHSWLAFPEQAAAIVGGVLLQIWCVALAASAARQLWLLSQLDFARPLLQTQRALAQLRRWRTRVAPWLGVAFWVLWVAVADAAWRALTGRSLPYAWLLCNLLVGVLGGIGTWLGYRRLQRSGHPWLERLDTVHAGRSVARTETLLEQIARFQRE
Take B7: the fold repression in experiment [1] stood at 2.38; in experiment [2], 5.04; in experiment [3] it was 3.01; in experiment [4], 2.04; in experiment [5], 1.76.

B8: AS16_973 (protein)
chain: MKTDDLIALLAAGEGPVPRHAVGRRMAVAALGGLTAALLLTITLYGVRSDITEVAQTPLFWGKVAFPTSLALIGLWLTSRLARPGGKGAAGWKMLGLPLLLVWCGAAVSIAGAPVDARADLLFGRTWRTCALNIALLSVPAFVTVFWALKGLAPTRLRLAGAAGGLLAGSSATVAYCLHCPEMGVPFWGVWYVLGMLVPTVLGAWWGPRMLRW
On to B8, for which the fold repression came to 0.448 in experiment [1]; 0.918 in experiment [2]; 0.884 in experiment [3]; 0.463 in experiment [4]; 0.683 in experiment [5].

B9: AS15_436 (protein)
chain: MAQSTEPKASPQEATAKGGDNTKGKSRKELQQQIDENLRRVYEEALVQEVPDRFAMLLDQLRQKGTGK
On to B9, for which the fold repression in experiment [1] is 1.58; in experiment [2], 9.47; in experiment [3], 46.1; in experiment [4] it was 2.1; in experiment [5] it was 3.04.

B10: AS03_1244 (protein)
chain: MKQFDPDVNIRPKEDSIRHYSVPDDYFASFTDKLMAQIPAVKEENTVVVPSVALWPKLRPLLYLAASFLLMIGMFKAFSLFGVGSDTGRTTSTSAGLVALDHGDTRWSEDTDYRDFLHDNCAETVSDEWVLTDFSE
In the case of B10, the fold repression turned out to be 1.96 in experiment [1]; 2.19 in experiment [2]; 2.04 in experiment [3]; 1.54 in experiment [4]; 1.65 in experiment [5].

B11: AS02_915 (protein)
chain: MEKTGQEWVSASVDGETDRQTLAELAADTDSHAKWQRYHLMGDAMRDELPQAMPLDLSARIAAALEDEPTILAPKVEREATQAPSRAVVVPFMRQLGQYGIAAAVALMAVVGVQNYQSTQDDAPLPVLNTRPLVGTATPVSLQTGPVANQNQGNANDQLLEQRRRINAYLQDHMLQQRLNTGAVVDDNSEVTPIPVNR
Turning to B11, the fold repression in experiment [1] was determined as 5.22; in experiment [2] it was 6.23; in experiment [3], 3.47; in experiment [4], 2.79; in experiment [5], 2.28.

B12: AS11_987 (protein)
chain: MNKHPDNNLLEAYASGSIDAVSGLVVATHLETCSKCRAYVNQVEASQANTVSESPSEYSPEFDDMLNDIINAEPVNDNVVIQDTAFVNVAGKSFELPKTLVRFSDLVGSWRSYGGKVFSAQIDLGEDARVSLMYIGENVQIPQHTHRGLESTLVLHGGFSDEDGQYEEGDLMVRDASVKHSPFTQEGEDCLCLTVLTEPMIFTQGVARIFNLFGKGLYP
Take B12: the fold repression in experiment [1] turned out to be 3.07; in experiment [2], 2.94; in experiment [3], 3.32; in experiment [4], 2.89; in experiment [5] it was 2.38.

B13: AS22_4450 (protein)
chain: MELDDMKHAWQTLEQRLDQQAAQTGQLLGVVHEETVRSSLRPLWVAQTAQLLCALALAIVSARSWIPHTDQPVAVIGGVLLQAWCMALAISAMVQLQLLTQFNVAGPLLRTQHALARLRRWRTRVAPWLGVAFWVLWIAVADALWRALTGQTLPTDWLVLNLLVGVAGGIGTWLGFRRLQRAQHPWLERIDRAHAGTGVIRAERMLEEIARFQRD
B13: the fold repression in experiment [1] amounted to 1.98; in experiment [2], 1.94; in experiment [3], 1.41; in experiment [4], 1.54; in experiment [5], 1.24.

B14: AS04_1609 (protein)
chain: MNRTTEQRNAEVMKTIGLLDQMPRVEVDHLFRVRLMQRIEAMEVKKTSWSALPGGAFNPRLAFMALLLMLNIASALMLFMHGTPQATGSSGAIAESLTEDYGGPALSYYDDQTTIDR
Turning to B14, the fold repression in experiment [1] amounted to 2.53; in experiment [2] it was 4.47; in experiment [3], 5.75; in experiment [4], 1.99; in experiment [5], 3.53.

B15: AS16_3622 (protein)
chain: MMKTDELISLLATAEGPVDRHALARRLGLALLAGLLGALLLTVALYGVRSDLAEVARTPLFWAKVALPTSLALLGLWLTQRLARPGVRGGALWGLLGVPLLLVWLGAAISLFGAPPEARADLIFGRTWRTCALNITLLSTPVFIAVFWALRGLAPTRLRQAGAAGGLLAGSTATLVYCLHCPEMGVPFWGLWYLLGMLVPTLLGAVLGPRLLRW
With B15, the fold repression in experiment [1] was 1.37; in experiment [2] it was 8.73; in experiment [3] it was 4.75; in experiment [4], 0.992; in experiment [5], 1.87.
